Experimental data from PMC4405707.

Molecular target: TARP γ-2 (rat) (UniProt Q71RJ2)
Test: co-IP; GluA2 variants transfected into HEK293T cells stably expressing TARP γ-2; proteins extracted under mild detergent conditions; IP with an anti-γ-2 antibody, blot probed with polyclonal GluA2 antibody; amounts normalized to the input

Chain of TARP γ-2 (rat) (Q71RJ2 whole entry): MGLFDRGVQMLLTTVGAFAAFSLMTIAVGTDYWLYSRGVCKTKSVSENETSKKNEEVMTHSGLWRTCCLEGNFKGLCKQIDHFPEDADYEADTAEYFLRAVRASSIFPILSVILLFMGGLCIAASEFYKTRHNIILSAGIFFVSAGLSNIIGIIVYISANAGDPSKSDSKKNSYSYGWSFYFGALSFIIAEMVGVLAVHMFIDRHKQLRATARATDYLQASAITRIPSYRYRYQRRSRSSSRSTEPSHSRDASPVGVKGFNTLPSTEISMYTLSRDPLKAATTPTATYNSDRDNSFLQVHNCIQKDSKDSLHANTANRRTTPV
Chain of GluA2i-ΔNTD (flip, R607) (P19491 other isoform, or with tags, fused parts or gaps, stated change not applied): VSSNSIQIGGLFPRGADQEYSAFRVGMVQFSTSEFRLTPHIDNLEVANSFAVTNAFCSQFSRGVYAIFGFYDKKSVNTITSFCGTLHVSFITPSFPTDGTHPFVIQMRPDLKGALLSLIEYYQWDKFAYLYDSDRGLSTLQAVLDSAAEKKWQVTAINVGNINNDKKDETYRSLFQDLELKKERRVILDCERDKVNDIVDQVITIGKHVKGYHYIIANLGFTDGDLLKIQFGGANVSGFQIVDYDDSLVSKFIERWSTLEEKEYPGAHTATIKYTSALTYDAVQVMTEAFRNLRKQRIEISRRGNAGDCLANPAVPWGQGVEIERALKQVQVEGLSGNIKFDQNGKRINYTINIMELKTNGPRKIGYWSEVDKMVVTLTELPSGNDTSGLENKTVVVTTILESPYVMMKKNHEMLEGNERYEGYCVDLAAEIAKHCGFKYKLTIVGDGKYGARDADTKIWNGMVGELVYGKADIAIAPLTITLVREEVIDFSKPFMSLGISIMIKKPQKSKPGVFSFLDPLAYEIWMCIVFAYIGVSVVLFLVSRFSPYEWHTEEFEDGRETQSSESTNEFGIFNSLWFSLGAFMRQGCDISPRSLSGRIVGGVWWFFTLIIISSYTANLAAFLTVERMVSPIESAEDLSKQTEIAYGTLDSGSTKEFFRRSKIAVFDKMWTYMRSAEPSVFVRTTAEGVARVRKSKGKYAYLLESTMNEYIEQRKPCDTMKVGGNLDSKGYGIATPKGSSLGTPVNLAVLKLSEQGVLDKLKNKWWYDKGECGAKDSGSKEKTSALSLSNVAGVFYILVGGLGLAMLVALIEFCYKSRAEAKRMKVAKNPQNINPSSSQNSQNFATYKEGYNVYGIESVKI
Chain of GluA2o-R607 ΔNTD (flop Δ-NTD mutant) (P19491 other isoform, or with tags, fused parts or gaps, stated change not applied): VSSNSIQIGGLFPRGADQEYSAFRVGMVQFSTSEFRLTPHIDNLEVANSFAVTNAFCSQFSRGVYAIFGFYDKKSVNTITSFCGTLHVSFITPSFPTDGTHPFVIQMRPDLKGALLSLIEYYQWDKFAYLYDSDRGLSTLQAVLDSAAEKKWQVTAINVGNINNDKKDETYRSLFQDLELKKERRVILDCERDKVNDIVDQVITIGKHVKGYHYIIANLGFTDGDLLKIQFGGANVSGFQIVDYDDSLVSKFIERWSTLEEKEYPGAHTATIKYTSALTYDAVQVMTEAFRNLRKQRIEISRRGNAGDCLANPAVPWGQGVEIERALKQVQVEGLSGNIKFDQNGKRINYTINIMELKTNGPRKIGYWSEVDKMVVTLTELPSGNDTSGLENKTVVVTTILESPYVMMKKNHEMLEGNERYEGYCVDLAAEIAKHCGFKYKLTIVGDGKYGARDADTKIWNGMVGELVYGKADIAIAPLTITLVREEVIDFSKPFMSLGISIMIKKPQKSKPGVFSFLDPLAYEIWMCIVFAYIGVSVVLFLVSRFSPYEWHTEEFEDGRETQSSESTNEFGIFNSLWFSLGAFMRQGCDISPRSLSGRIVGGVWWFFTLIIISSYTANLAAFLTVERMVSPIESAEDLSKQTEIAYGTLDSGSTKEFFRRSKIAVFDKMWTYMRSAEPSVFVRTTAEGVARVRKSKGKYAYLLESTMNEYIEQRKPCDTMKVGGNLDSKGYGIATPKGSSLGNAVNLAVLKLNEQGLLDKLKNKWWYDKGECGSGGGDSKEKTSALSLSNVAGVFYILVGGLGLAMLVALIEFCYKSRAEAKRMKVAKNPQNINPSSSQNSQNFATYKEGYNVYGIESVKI

fold reduction of coIP by the Q to R switch (ΔNTD R607 against ΔNTD Q607) [fold]	ratio of IPed GluA2i WT to GluA2i-ΔNTD, normalized to the input [fold]	fold less efficiently precipitated than the flip ΔNTD counterpart [fold]	Substance
2.2	2.9		GluA2i-ΔNTD (flip, R607) (from UniProt P19491-2 22-883) (receptor)
		2.9	GluA2o-R607 ΔNTD (flop Δ-NTD mutant) (from UniProt P19491 22-883) (receptor)
